Measured values taken from PMC8248388.

Experiments:
FcγRIIb [1] = target: FcγRIIb (UniProt P31994); experiment: SPR; Biacore T200, 25°C, HBS-EP+; anti-His antibody on a CM5 chip captures His-tagged FcγRIIb (404 RU); rituximab 375-6000 nM injected; steady-state model, report points 15 s after injection start
FcγRIIb [2] = target: FcγRIIb (UniProt P31994); experiment: SPR; Biacore T200, 25°C, HBS-EP+; His-tagged FcγRIIb captured by anti-His antibody on a CM5 chip (404 RU), rituximab injected at 375-6000 nM; steady-state model, report points 15 s after injection start
FcγRIIIa V176 [3] = target: FcγRIIIa V176 (UniProt P08637)
FcγRIIIa F176 [4] = target: FcγRIIIa F176 (UniProt P08637); experiment: SPR; Biacore T200, 25°C, HBS-EP+; anti-His antibody amine-coupled on a CM5 chip captures the His-tagged FcγR; rituximab injected at five increasing concentrations (150 s, 30 µl/min), single-cycle kinetics, dissociation 600 s; 1:1 binding model, KD from kd/ka
FcγRIIIa V176 [5] = target: FcγRIIIa V176 (UniProt P08637); experiment: as above
FcγRIIIa F176 [6] = target: FcγRIIIa F176 (UniProt P08637); experiment: SPR; Biacore T200, 25°C, HBS-EP+; His-tagged FcγR captured by anti-His antibody on a CM5 chip, rituximab injected; single-cycle kinetics, five concentrations, 600 s dissociation; 1:1 binding model, KD from kd/ka
FcγRI [7] = target: FcγRI (UniProt P12314); experiment: as above
FcγRI [8] = target: FcγRI (UniProt P12314); experiment: SPR; Biacore T200, 25°C, HBS-EP+; anti-His antibody amine-coupled on a CM5 chip captures the His-tagged FcγR; rituximab injected at five increasing concentrations (150 s, 30 µl/min), single-cycle kinetics, dissociation 600 s; 1:1 binding model, KD from kd/ka

Sequence of UniProt P12314 (P12314 16-292): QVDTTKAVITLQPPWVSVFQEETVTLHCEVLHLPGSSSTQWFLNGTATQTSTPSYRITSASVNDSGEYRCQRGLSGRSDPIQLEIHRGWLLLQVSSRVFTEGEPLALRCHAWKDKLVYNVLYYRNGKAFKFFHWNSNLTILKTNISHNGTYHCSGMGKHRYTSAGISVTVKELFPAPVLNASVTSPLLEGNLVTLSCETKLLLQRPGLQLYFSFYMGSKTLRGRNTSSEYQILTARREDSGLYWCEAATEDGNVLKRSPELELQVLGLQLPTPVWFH
Sequence of UniProt P31994 (P31994 43-217): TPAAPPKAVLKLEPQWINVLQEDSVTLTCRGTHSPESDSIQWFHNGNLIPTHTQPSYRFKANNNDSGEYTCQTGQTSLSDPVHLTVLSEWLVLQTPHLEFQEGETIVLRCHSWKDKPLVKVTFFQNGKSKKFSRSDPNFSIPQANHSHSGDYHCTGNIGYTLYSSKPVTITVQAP

| Substance | Kd (FcγRIIb [1]) [nM] | Kd (FcγRIIb [2]) [nM] | EC50 of the ADCC Reporter Bioassay (Promega G7015); Day 7 samples from 200, 400 and 800 µM ThioFuc (38, 34, 37 ng/mL); FcγRIIIa variant on the effector cells not stated (FcγRIIIa V176 [3]) [µg/mL] | Kd (FcγRIIIa F176 [4]) [nM] | Kd (FcγRIIIa V176 [5]) [nM] | Kd (FcγRIIIa F176 [6]) [nM] | Kd (FcγRI [7]) [nM] | EC50 of the ADCC Reporter Bioassay (Promega G7015): Raji target cells, engineered Jurkat effector cells, luciferase; FcγRIIIa variant on the effector cells not stated (FcγRIIIa V176 [3]) [µg/mL] | Kd (FcγRI [8]) [nM] |
| --- | --- | --- | --- | --- | --- | --- | --- | --- | --- |
| modified rituximab (46% afucosylation and 48% thiofucosylation) (antibody) | 908 | 893 | 0.038 | 70 | 13 | 72 | 11.3 | – | – |
| rituximab (8.5% afucosylation) (antibody) | – | – | – | – | – | – | 14 | 0.087 | 12 |
